{"source": "patent US20200317791A1", "about": "(published 2020)", "binders": {"B1": {"name": "TCR-TRAT (TCR, V domains shown)", "Valpha": "GEDVEQSLFLSVREGDSSVINCTYTDSSSTYLYWYKQEPGAGLQLLTYIFSNMDMKQDQRLTVLLNKKDKHLSLRIADTQTGDSAIYFCAESSNLSGNTPLVFGKGTRLSVIA", "Vbeta": "AAGVIQSPRHLIKEKRETATLKCYPIPRHDTVYWYQQGPGQDPQFLISFYEKMQSDKGSIPDRFSAQQFSDYHSELNMSSLELGDSALYFCASGLAGITGELFFGEGSRLTVL"}}, "target": "T1, peptide on HLA-C*06:02 (human)", "T1 peptide": "TRATKMQVI", "assay": "activation reporter or marker"}
{"binder": "B1", "values": [{"measurement": "binding result", "result": "recognises"}]}
